# Experimental data: the supplement of paper PMC5998384
# How the values were obtained:
# HeLa Kyoto [1] = experiment: solubility in G1/S (NP-40 vs SDS abundance) (log2 ratio); higher = more soluble; conditions: cell cycle stage: G1/S
# HeLa Kyoto [2] = experiment: solubility change mitosis vs G1/S (difference of NP-40 vs SDS log2 ratios) (log2 ratio difference); higher = more soluble in mitosis
# 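For solubility change mitosis vs G1/S (difference of NP-40 vs SDS log2 ratios) in this document: synchronized HeLa Kyoto cells (double thymidine block for G1/S, nocodazole release for mitosis), protein amounts in NP-40 versus SDS lysates quantified by mass spectrometry, three biological replicates.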
# 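For solubility in G1/S (NP-40 vs SDS abundance) in this document: HeLa Kyoto cells arrested at G1/S by double thymidine block, proteins quantified by TMT10plex mass spectrometry in mild NP-40 versus SDS extracts, three biological replicates.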
Sequence,solubility in G1/S (log2) (HeLa Kyoto [1]),solubility change mitosis (log2) (HeLa Kyoto [2])
MAGPQPLALQLEQLLNPRPSEADPEADPEEATAARVIDRFDEGEDGEGDFLVVGSIRKLASASLLDTDKRYCGKTTSRKAWNEDHWEQTLPGSSDEEISDEEGSGDEDSEGLGLEEYDEDDLGAAEEQECGDHRESKKSRSHSAKTPGFSVQSISDFEKFTKGMDDLGSSEEEEDEESGMEEGDDAEDSQGESEEDRAGDRNSEDDGVVMTFSSVKVSEEVEKGRAVKNQIALWDQLLEGRIKLQKALLTTNQLPQPDVFPLFKDKGGPEFSSALKNSHKALKALLRSLVGLQEELLFQYPDTRYLVDGTKPNAGSEEISSEDDELVEEKKQQRRRVPAKRKLEMEDYPSFMAKRFADFTVYRNRTLQKWHDKTKLASGKLGKGFGAFERSILTQIDHILMDKERLLRRTQTKRSVYRVLGKPEPAAQPVPESLPGEPEILPQAPANAHLKDLDEEIFDDDDFYHQLLRELIERKTSSLDPNDQVAMGRQWLAIQKLRSKIHKKVDRKASKGRKLRFHVLSKLLSFMAPIDHTTMNDDARTELYRSLFGQLHPPDEGHGD [AATF],-2.12,0.788
MAGYLKLVCVSFQRQGFHTVGSRCKNRTGAEHLWLTRHLRDPFVKAAKVESYRCRSAFKLLEVNERHQILRPGLRVLDCGAAPGAWSQVAVQKVNAAGTDPSSPVGFVLGVDLLHIFPLEGATFLCPADVTDPRTSQRILEVLPGRRADVILSDMAPNATGFRDLDHDRLISLCLTLLSVTPDILQPGGTFLCKTWAGSQSRRLQRRLTEEFQNVRIIKPEASRKESSEVYFLATQYHGRKGTVKQ [FTSJ2],0.00974,0.0979
MAHEAMEYDVQVQLNHAEQQPAPAGMASSQGGPALLQPVPADVVSSQGVPSILQPAPAEVISSQATPPLLQPAPQLSVDLTEVEVLGEDTVENINPRTSEQHRQGSDGNHTIPASSLHSMTNFISGLQRLHGMLEFLRPSSSNHSVGPMRTRRRVSASRRARAGGSQRTDSARLRAPLDAYFQVSRTQPDLPATTYDSETRNPVSEELQVSSSSDSDSDSSAEYGGVVDQAEESGAVILEEQLAGVSAEQEVTCIDGGKTLPKQPSPQKSEPLLPSASMDEEEGDTCTICLEQWTNAGDHRLSALRCGHLFGYRCISTWLKGQVRKCPQCNKKARHSDIVVLYARTLRALDTSEQERMKSSLLKEQMLRKQAELESAQCRLQLQVLTDKCTRLQRRVQDLQKLTSHQSQNLQQPRGSQAWVLSCSPSSQGQHKHKYHFQKTFTVSQAGNCRIMAYCDALSCLVISQPSPQASFLPGFGVKMLSTANMKSSQYIPMHGKQIRGLAFSSYLRGLLLSASLDNTIKLTSLETNTVVQTYNAGRPVWSCCWCLDEANYIYAGLANGSILVYDVRNTSSHVQELVAQKARCPLVSLSYMPRAASAAFPYGGVLAGTLEDASFWEQKMDFSHWPHVLPLEPGGCIDFQTENSSRHCLVTYRPDKNHTTIRSVLMEMSYRLDDTGNPICSCQPVHTFFGGPTCKLLTKNAIFQSPENDGNILVCTGDEAANSALLWDAASGSLLQDLQTDQPVLDICPFEVNRNSYLATLTEKMVHIYKWE [RFWD3],-0.0967,-0.0684
MAHLGPTPPPHSLNYKSEDRLSEQDWPAYFKVPCCGVDTSQIESEEAEVDVRERETQRDREPKRARDLTLRDSCTDNSMQFGTRTTTAEPGFMGTWQNADTNLLFRMSQQAIRCTLVNCTCECFQPGKINLRTCDQCKHGWVAHALDKLSTQHLYHPTQVEIVQSNVVFDISSLMLYGTQAVPVRLKILLDRLFSVLKQEEVLHILHGLGWTLRDYVRGYILQDAAGKVLDRWAIMSREEEIITLQQFLRFGETKSIVELMAIQEKEGQAVAVPSSKTDSDIRTFIESNNRTRSPSLLAHLENSNPSSIHHFENIPNSLAFLLPFQYINPVSAPLLGLPPNGLLLEQPGLRLREPSLSTQNEYNESSESEVSPTPYKNDQTPNRNALTSITNVEPKTEPACVSPIQNSAPVSDLTKTEHPKSSFRIHRMRRMGSASRKGRVFCNACGKTFYDKGTLKIHYNAVHLKIKHRCTIEGCNMVFSSLRSRNRHSANPNPRLHMPMLRNNRDKDLIRATSGAATPVIASTKSNLALTSPGRPPMGFTTPPLDPVLQNPLPSQLVFSGLKTVQPVPPFYRSLLTPGEMVSPPTSLPTSPIIPTSGTIEQHPPPPSEPVVPAVMMATHEPSADLAPKKKPRKSSMPVKIEKEIIDTADEFDDEDDDPNDGGAVVNDMSHDNHCHSQEEMSPGMSVKDFSKHNRTRCISRTEIRRADSMTSEDQEPERDYENESESSEPKLGEESMEGDEHIHSEVSEKVLMNSERPDENHSEPSHQDVIKVKEEFTDPTYDMFYMSQYGLYNGGGASMAALHESFTSSLNYGSPQKFSPEGDLCSSPDPKICYVCKKSFKSSYSVKLHYRNVHLKEMHVCTVAGCNAAFPSRRSRDRHSANINLHRKLLTKELDDMGLDSSQPSLSKDLRDEFLVKIYGAQHPMGLDVREDASSPAGTEDSHLNGYGRGMAEDYMVLDLSTTSSLQSSSSIHSSRESDAGSDEGILLDDIDGASDSGESAHKAEAPALPGSLGAEVSGSLMFSSLSGSNGGIMCNICHKMYSNKGTLRVHYKTVHLREMHKCKVPGCNMMFSSVRSRNRHSQNPNLHKNIPFTSVD [BNC2],-0.628,0.235
MAHYKAADSKREQFRRYLEKSGVLDTLTKVLVALYEEPEKPNSALDFLKHHLGAATPENPEIELLRLELAEMKEKYEAIVEENKKLKAKLAQYEPPQEEKRAE [MYCBP],-0.523,0.968
MAKFGVHRILLLAISLTKCLESTKLLADLKKCGDLECEALINRVSAMRDYRGPDCRYLNFTKGEEISVYVKLAGEREDLWAGSKGKEFGYFPRDAVQIEEVFISEEIQMSTKESDFLCLLGVSYTFDNEDSELNGDYGENIYPYEEDKDEKSSIYESDFQIEPGFYATYESTLFEDQVPALEAPEDIGSTSESKDWEEVVVESMEQDRIPEVHVPPSSAVSGVKEWFGLGGEQAEEKAFESVIEPVQESSFRSRKIAVEDENDLEELNNGEPQTEHQQESESEIDSVPKTQSELASESEHIPKPQSTGWFGGGFTSYLGFGDEDTGLELIAEESNPPLQDFPNSISSDKEATVPCTEILTEKKDTITNDSLSLKPSWFDFGFAILGFAYAKEDKIMLDDRKNEEDGGADEHEHPLTSELDPEKEQEIETIKIIETEDQIDKKPVSEKTDESDTIPYLKKFLYNFDNPWNFQNIPKETELPFPKQILDQNNVIENEETGEFSIDNYPTDNTKVMIFKSSYSLSDMVSNIELPTRIHEEVYFEPSSSKDSDENSKPSVDTEGPALVEIDRSVENTLLNSQMVSTDNSLSSQNYISQKEDASEFQILKYLFQIDVYDFMNSAFSPIVILTERVVAALPEGMRPDSNLYGFPWELVICAAVVGFFAVLFFLWRSFRSVRSRLYVGREKKLALMLSGLIEEKSKLLEKFSLVQKEYEGYEVESSLKDASFEKEATEAQSLEATCEKLNRSNSELEDEILCLEKELKEEKSKHSEQDELMADISKRIQSLEDESKSLKSQVAEAKMTFKIFQMNEERLKIAIKDALNENSQLQESQKQLLQEAEVWKEQVSELNKQKVTFEDSKVHAEQVLNDKESHIKTLTERLLKMKDWAAMLGEDITDDDNLELEMNSESENGAYLDNPPKGALKKLIHAAKLNASLKTLEGERNQIYIQLSEVDKTKEELTEHIKNLQTEQASLQSENTHFENENQKLQQKLKVMTELYQENEMKLHRKLTVEENYRLEKEEKLSKVDEKISHATEELETYRKRAKDLEEELERTIHSYQGQIISHEKKAHDNWLAARNAERNLNDLRKENAHNRQKLTETELKFELLEKDPYALDVPNTAFGREHSPYGPSPLGWPSSETRAFLSPPTLLEGPLRLSPLLPGGGGRGSRGPGNPLDHQITNERGESSCDRLTDPHRAPSDTGSLSPPWDQDRRMMFPPPGQSYPDSALPPQRQDRFCSNSGRLSGPAELRSFNMPSLDKMDGSMPSEMESSRNDTKDDLGNLNVPDSSLPAENEATGPGFVPPPLAPIRGPLFPVDARGPFLRRGPPFPPPPPGAMFGASRDYFPPGDFPGPPPAPFAMRNVYPPRGFPPYLPPRPGFFPPPPHSEGRSEFPSGLIPPSNEPATEHPEPQQET [CTAGE5],-0.0196,0.181
MAKGRVAERSQLGAHHTTPVGDGAAGTRGLAAPGSRDHQKEKSWVEAGSARMSLLILVSIFLSAAFVMFLVYKNFPQLSEEERVNMKVPRDMDDAKALGKVLSKYKDTFYVQVLVAYFATYIFLQTFAIPGSIFLSILSGFLYPFPLALFLVCLCSGLGASFCYMLSYLVGRPVVYKYLTEKAVKWSQQVERHREHLINYIIFLRITPFLPNWFINITSPVINVPLKVFFIGTFLGVAPPSFVAIKAGTTLYQLTTAGEAVSWNSIFILMILAVLSILPAIFQKKLKQKFE [TMEM41B],-0.0617,0.0116
MALEQALQAARQGELDVLRSLHAAGLLGPSLRDPLDALPVHHAARAGKLHCLRFLVEEAALPAAARARNGATPAHDASATGHLACLQWLLSQGGCRVQDKDNSGATVLHLAARFGHPEVVNWLLHHGGGDPTAATDMGALPIHYAAAKGDFPSLRLLVEHYPEGVNAQTKNGATPLYLACQEGHLEVTQYLVQECGADPHARAHDGMTPLHAAAQMGHSPVIVWLVSCTDVSLSEQDKDGATAMHFAASRGHTKVLSWLLLHGGEISADLWGGTPLHDAAENGELECCQILVVNGAELDVRDRDGYTAADLSDFNGHSHCTRYLRTVENLSVEHRVLSRDPSAELEAKQPDSGMSSPNTTVSVQPLNFDLSSPTSTLSNYDSCSSSHSSIKGQHPPCGLSSARAADIQSYMDMLNPELGLPRGTIGKPTPPPPPPSFPPPPPPPGTQLPPPPPGYPAPKPPVGPQAADIYMQTKNKLRHVETEALKKELSSCDGHDGLRRQDSSRKPRAFSKQPSTGDYYRQLGRCPGETLAARPGMAHSEEVRARQPARAGCPRLGPAARGSLEGPSAPPQAALLPGNHVPNGCAADPKASRELPPPPPPPPPPLPEAASSPPPAPPLPLESAGPGCGQRRSSSSTGSTKSFNMMSPTGDNSELLAEIKAGKSLKPTPQSKGLTTVFSGIGQPAFQPDSPLPSVSPALSPVRSPTPPAAGFQPLLNGSLVPVPPTTPAPGVQLDVEALIPTHDEQGRPIPEWKRQVMVRKMQLKMQEEEEQRRKEEEEEARLASMPAWRRDLLRKKLEEEREQKRKEEERQKQEELRREKEQSEKLRTLGYDESKLAPWQRQVILKKGDIAKY [ESPN],-0.041,-0.0492
MALFVRLLALALALALGPAATLAGPAKSPYQLVLQHSRLRGRQHGPNVCAVQKVIGTNRKYFTNCKQWYQRKICGKSTVISYECCPGYEKVPGEKGCPAALPLSNLYETLGVVGSTTTQLYTDRTEKLRPEMEGPGSFTIFAPSNEAWASLPAEVLDSLVSNVNIELLNALRYHMVGRRVLTDELKHGMTLTSMYQNSNIQIHHYPNGIVTVNCARLLKADHHATNGVVHLIDKVISTITNNIQQIIEIEDTFETLRAAVAASGLNTMLEGNGQYTLLAPTNEAFEKIPSETLNRILGDPEALRDLLNNHILKSAMCAEAIVAGLSVETLEGTTLEVGCSGDMLTINGKAIISNKDILATNGVIHYIDELLIPDSAKTLFELAAESDVSTAIDLFRQAGLGNHLSGSERLTLLAPLNSVFKDGTPPIDAHTRNLLRNHIIKDQLASKYLYHGQTLETLGGKKLRVFVYRNSLCIENSCIAAHDKRGRYGTLFTMDRVLTPPMGTVMDVLKGDNRFSMLVAAIQSAGLTETLNREGVYTVFAPTNEAFRALPPRERSRLLGDAKELANILKYHIGDEILVSGGIGALVRLKSLQGDKLEVSLKNNVVSVNKEPVAEPDIMATNGVVHVITNVLQPPANRPQERGDELADSALEIFKQASAFSRASQRSVRLAPVYQKLLERMKH [TGFBI],-0.072,-0.149
